Assay results: patent US11254745 (CROWN BIOSCIENCE, dated 2022)

B1: Chimeric 29B7 anti-CD4 antibody (antibody, human IgG1, kappa, V domains shown)
VH: QVQLQQSGAELAKPGASVKMSCKTSADSLNTHWMHWVKQRPGQGLEWIGYINPYTGSGEYSQKFKGKATLTADISSSTAYMQLISLTSEDSAVYYCAYDSTGAMDYWGQGTSVTVSS
VL: DIKMTQSPSSMYASLGERITITCKASQDINRYLSWFQQKPGKSPKTPIYRADRSVDGVPSRFSGSGSGQDYSLTISSLEYEDMGIYYCQQYDEFPYTFGGGTKLEIKR
B2: MT412 humanized anti-CD4 antibody (antibody, V domains shown)
VH: QIQLVQSGSELKKPGASVKVSCKASGYTFTDYSMHWVRQAPGQGLEWMGWINTETGEPTYADDFKGRFVFSLDTSVSTAYLQISSLKAEDTAVYYCAREDYYGHDGFLYWGQGTLVTVSS
VL: DIQMTQSPSFLSASVGDRVTITCKASQDVVTTVAWYQQKPGKAPKLLIYWASLRHTGVPSRFSGSGSGTEFTLTISSLQPEDFATYFCQQYSSYPYTFGQGTKLEIKR
notes: Expressed as heavy and light chains in Freestyle 293 cells; The description says only that humanized antibodies may have human IgG1 and human kappa constant regions; also called Humanized MT412
B3: 2B6 humanized anti-CD4 antibody (antibody, V domains shown)
VH: QVQLQESGPGLVKPSETLSLTCTVSGDSITSGYWNWIRQPPGKGLEFLGYISFADTTNYNPSLKSRVTISRDTSKNQFSLKLSSVTAADTAVYYCARDDYGYYAMDYWGQGTLVTVSS
VL: DIQLTQSPSSLSASVGDRVTITCRASQDIDNYLNWYQQKPGKAPKLLIYYTSRLHSGVPSRFSGSGSGTDYTLTISSLQPEDFATYYCQQGNTLPTFGQGTKLEIK
notes: Expressed as heavy and light chains in Freestyle 293 cells; also called Humanized 2B6
B4: 29B7 humanized anti-CD4 antibody (antibody, V domains shown)
VH: QVQLVQSGAEVKKPGASVKVSCKASGDSLNTHWMHWVRQAPGQRLEWIGYINPYTGSGEYSQKFKGRATLTADISASTAYMELSSLRSEDTAVYYCAYDSTGAMDYWGQGTLVTVSS
VL: DIQMTQSPSSLSASVGDRVTITCKASQDINRYLSWFQQKPGKAPKTPIYRADRSVDGVPSRFSGSGSGQDYTLTISSLQPEDFATYYCQQYDEFPYTFGQGTKLEIK
notes: Expressed as heavy and light chains in Freestyle 293 cells; The description says only that humanized antibodies may have human IgG1 and human kappa constant regions; also called Humanized 29B7

Experiments:
[1] = target: T1, human CD4 on 293T cells stably expressing CD4 (CD4-293T) (human, UniProt P01730 26-458); test: FACS, chimeric antibody on CD4-293T cells
T1 construct: whole, on cells; also called 293T-CD4 cells; hCD4 (FACS)
Experimental: (§1) Cell binding analysis of anti-CD4 antibody was performed using 293T cell line stably expressing CD4 (CD4-293T). 2*10^5 CD4-293T cells were added to each well of 96-well plate and incubated with the indicated hybridoma supernatant or a serial concentrations of purified antibody (starting from 20 μg/mL) at 4° C. for 1 h. After the cells were washed three times with FACS buffer, the secondary antibody (PE Goat anti-mouse: 1:200) was added to the cells at 100 μl/well, and incubated at 4° C. for 40 min. Cells were washed three times with FACS buffer and analyzed by FACS Array. The binding EC50 of purified antibody was calculated with GraphPad Prism 5.
(§2) Freestyle 293 cells (200 mL at 1*10^6/mL) were transfected with 100 µg of each of the chimeric heavy and light chain expression plasmids and cultured for 6 days at 37° C. The chimeric antibody in the supernatant was then purified with Protein-A column (GE healthcare). Binding of the chimeric antibody with CD4 was measured by ELISA (FIG. 3, Table 5) and FACS (FIG. 4, Table 6), using the similar methods described above in Example 2.

[2] = target: T1, human CD4 on 293T cells stably …; test: FACS on 293T cells expressing human CD4, MFI; table under the graph (unit from the graph's axis); Table 6 of the text gives this value to MT412
Experimental: as §1, §2

[3] = target: T2, extracellular domain of hCD4 fused with a histidine tag (hCD4-HisTag) (human, UniProt P01730 26-396); test: Biacore T200 SPR, antibody captured on Protein A, CD4-HisTag analyte, 1:1 fit, 25 C
T2 construct: extracellular domain; also called human CD4-HisTag; not shown: histidine tag
Experimental: The binding kinetics between CD4 and CD4 antibodies were measured by Biacore™ analysis, which was performed at 25° C. on a Biacore™ T200 instrument. Protein A (GE, Cat. No:29139131-AA) was diluted with 10 mM pH 5.0 sodium acetate and immobilized onto reference and experiment flow cells of a CM5 biosensor chip to around 15000 RU using an amine coupling kit (GE, BR10050). In the beginning of each cycle, diluted test antibody (1.5 µg/mL) was injected over experiment flow cell for 1 minute to be captured. CD4-HisTag analyte series were prepared by diluting the stocks with running buffer to 100 nM followed by 2-fold serial dilution in the same buffer down to 0.78 nM. Analytes were injected in series over the reference and experiment flow cells for 3 minutes at a flow rate of 30
μL/minute. Running buffer (PBS with 0.05% P20) was allowed to flow over for 10 minutes at a flow rate of 30 μL/minute. At the end of each cycle, the biosensor surface was regenerated with 3-minute injection of 10 mM pH 2.0 Glycine-HCl buffer at a flow rate of 10 μL/minute. For each analyte sample injection (i.e., each cycle), binding responses obtained from the experimental biosensor surface were double referenced by subtracting simultaneously recorded responses from the reference surface followed by additional subtraction of responses from a single referenced running buffer sample. The association and dissociation rate constants (ka and kd) were determined simultaneously by fitting double-referenced sensorgrams of the entire titration series to Langmuir model (1:1) using Biaevaluation software. The dissociation constant, KD, was calculated from the determined rate constants by the equation KD=kd/ka.

[4] = target: T3, extracellular domain of hCD4 fused with human Fc tag (hCD4-hFc) (human, UniProt P01730 26-396); test: ELISA, chimeric antibody on hCD4, method similar to Example 2
T3 construct: extracellular domain; also called human CD4-hFc; hCD4 (ELISA); not shown: human Fc tag
Experimental: (§3) Example 2: Selection of the Anti-hCD4 Hybridoma Antibodies Based on Binding and Gene Reporter Assays The binding interaction between hybridoma antibody and human CD4-hFc was measured by ELISA. 96-well plates (Costar, Cat. No:9018) were coated with 100 μL of 2 μg/ml CD4-hFc (CrownBio) in PBS buffer (Hyclone, Cat. No: SH30256.01B) overnight at 4° C. The wells were aspirated and non-specific binding sites were blocked by adding 200 μL of blocking buffer containing 1% (w/v) of bovine serum albumin (BSA, Roche, Cat. No: 738328) and incubating for 1 hour at 37° C. After the plates are washed three times with PBS buffer containing 0.05% (v/v) Tween™ 20 (Sigma, Cat. No: P1379), 100 μL hybridoma supernatant or a serial concentrations of purified antibody (starting from 20 μg/mL) diluted in blocking buffer was added to each well and incubated at room temperature for 1 hour. The plates were washed and incubated with 100 μL/well of Goat anti-Mouse IgG (Thermo, Cat. No:31432) in blocking buffer for 60 min. After the plates were washed, 100 μL/well of substrate solution TMB (eBioscience, Cat. No:00-4201-56) was added, and the plates were incubated for 2 min at room temperature before 100 μL/well of 2N H_2SO_4 was added to stop the reaction. The colorimetric signals were monitored at 450 nm using a SpectraMax Plus microplate reader (Molecular Devices). For the purified antibody, data were analyzed using GraphPad Prism 5 to calculated the $EC50$.
as §2

[5] = target: T3, extracellular domain of hCD4 fused with …; test: ELISA on human CD4, OD450; table under the graph (unit from the graph's axis); Table 7 of the text gives this value to 2B6
Experimental: (§4) Example 2: Selection of the Anti-hCD4 Hybridoma Antibodies Based on Binding and Gene Reporter Assays The binding interaction between hybridoma antibody and human CD4-hFc was measured by ELISA. 96-well plates (Costar, Cat. No:9018) were coated with 100 μL of 2 μg/ml CD4-hFc (CrownBio) in PBS buffer (Hyclone, Cat. No: SH30256.01B) overnight at 4° C. The wells were aspirated and non-specific binding sites were blocked by adding 200 μL of blocking buffer containing 1% (w/v) of bovine serum albumin (BSA, Roche, Cat. No: 738328) and incubating for 1 hour at 37° C. […] The colorimetric signals were monitored at 450 nm using a SpectraMax Plus microplate reader (Molecular Devices). For the purified antibody, data were analyzed using GraphPad Prism 5 to calculated the $EC50$.
(§5) DNA encoding humanized 2B6, 29B7 and MT412 antibody light chain and heavy chain was synthesized and cloned to the expression vector pcDNA3.1 (Invitrogen, Cat. No: V-790). […] Binding of the chimeric antibody with CD4 was measured by ELISA (FIG. 6, Table 7) and FACS (FIG. 7, Table 8), and the methods used were similar to those described above in Example 2.

[6] = target: T3, extracellular domain of hCD4 fused with …; test: ELISA, humanized antibody on hCD4, method similar to Example 2
Experimental: as §3
(§6) DNA encoding humanized 2B6, 29B7 and MT412 antibody light chain and heavy chain was synthesized and cloned to the expression vector pcDNA3.1 (Invitrogen, Cat. No: V-790). Freestyle 293 cells (200 mL at 10^6/mL) were transfected with 100 µg of each of the humanized heavy and light chain expression plasmids and cultured for 6 days at 37° C. The humanized antibody in the supernatant was then purified with Protein-A column (GE healthcare). Binding of the chimeric antibody with CD4 was measured by ELISA (FIG. 6, Table 7) and FACS (FIG. 7, Table 8), and the methods used were similar to those described above in Example 2.

[7] = target: T1, human CD4 on 293T cells stably …; test: FACS, humanized antibody on CD4-293T cells
Experimental: as §1, §6

[8] = target: T1, human CD4 on 293T cells stably …; test: FACS on 293T cells expressing human CD4, MFI; table under the graph (unit from the graph's axis); Table 8 of the text gives this value to 2B6
Experimental: as §1, §6

[9] = target: T3, extracellular domain of hCD4 fused with …; test: ELISA on human CD4, OD450; table under the graph (unit from the graph's axis); Table 7 of the text gives this value to 29B7
Experimental: as §4, §5

[10] = target: T1, human CD4 on 293T cells stably …; test: FACS on 293T cells expressing human CD4, MFI; table under the graph (unit from the graph's axis); Table 8 of the text gives this value to 29B7
Experimental: as §1, §6

[11] = target: T3, extracellular domain of hCD4 fused with …; test: ELISA on human CD4, OD450; table under the graph (unit from the graph's axis); Table 7 of the text gives this value to MT412
Experimental: as §4, §5

[12] = target: T1, human CD4 on 293T cells stably …; test: FACS on 293T cells expressing human CD4, MFI; table under the graph (unit from the graph's axis); Table 8 of the text gives this value to MT412
Experimental: as §1, §6

Binder | EC50 [1] [mg/L] | EC50 [2] [mg/L] | Kd [3] [nM] | koff [3] [s⁻¹] | kon [3] [M⁻¹ s⁻¹] | EC50 [4] [mg/L] | EC50 [5] [mg/L] | EC50 [6] [mg/L] | EC50 [7] [mg/L] | EC50 [8] [mg/L] | EC50 [9] [mg/L] | EC50 [10] [mg/L] | EC50 [11] [mg/L] | EC50 [12] [mg/L]
B1 | 0.401 | 0.515 | 0.0843 | 5.98e-05 | 709000 | 0.0243 | – | – | – | – | – | – | – | –
B2 | – | – | 1.8 | 0.00199 | 1.11e+06 | – | 0.0116 | 0.0116 | 0.183 | 0.211 | – | – | – | –
B3 | – | – | 0.152 | 7.89e-05 | 520000 | – | – | 0.0116 | 0.211 | – | 0.0056 | 0.182 | – | –
B4 | – | – | 0.444 | 0.000457 | 1.03e+06 | – | – | 0.0056 | 0.182 | – | – | – | 0.0116 | 0.183
